Where two headings read alike, the source gives them in different places. Numbered stars: 1 amine (or outer) side, 2 acyl side, 3 side chain; on linkers, the order of the positions; unused ones are H or OH. Square brackets hold non-standard residues; d marks the D form. Side chains are listed from the residue outwards. Ends that are not written are not given here. Peptide text beside a SMILES is read from it. * marks the point of attachment. PEG 40 kDa = PEG of 40 kDa covalently attached to Cys; γGlu = O=C(O)[C@H](CCC(=O)[*:2])N[*:1]; C16 acyl = 16 carbon fatty acyl group; Palmitoyl = CCCCCCCCCCCCCCCC(=O)*; Myristoyl = CCCCCCCCCCCCCC(=O)*; Aib = CC(C)(N)C(=O)O
How the values were obtained:
GLP-1 receptor = target: T1, GLP-1 receptor (Homo sapiens, UniProt P43220); test: cAMP induction at the GLP-1 receptor (agonist activity), firefly luciferase reporter assay in HEK293 cells; type: cell-based; details: for GLP-1R relative activity: relative to standard
T1 construct: expressed in transfected cells; host or cells: HEK293
T1 sequence (P43220 24-463): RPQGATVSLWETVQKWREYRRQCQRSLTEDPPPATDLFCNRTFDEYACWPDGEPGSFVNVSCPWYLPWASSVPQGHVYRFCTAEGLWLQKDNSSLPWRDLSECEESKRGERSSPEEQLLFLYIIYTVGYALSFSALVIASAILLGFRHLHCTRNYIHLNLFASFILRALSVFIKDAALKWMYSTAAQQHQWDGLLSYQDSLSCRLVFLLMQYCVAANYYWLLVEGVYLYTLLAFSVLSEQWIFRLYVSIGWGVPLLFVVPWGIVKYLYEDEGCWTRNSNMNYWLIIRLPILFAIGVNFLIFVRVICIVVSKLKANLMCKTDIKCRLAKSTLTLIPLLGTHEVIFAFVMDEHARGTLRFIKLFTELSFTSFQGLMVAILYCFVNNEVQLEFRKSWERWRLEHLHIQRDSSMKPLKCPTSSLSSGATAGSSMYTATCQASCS
Description: (§1) HEK293 cells co-transfected with the receptor and luciferase gene linked to a cAMP responsive element were employed for the bioassay.
(§2) All EC50s and IC50s are reported in the following examples in nM, unless indicated otherwise.

glucagon receptor [1] = target: T2, glucagon receptor (Homo sapiens, UniProt P47871); test: cell-based; details: Glu ICso (nM), Table A; Glu = glucagon
T2 sequence (P47871 26-477): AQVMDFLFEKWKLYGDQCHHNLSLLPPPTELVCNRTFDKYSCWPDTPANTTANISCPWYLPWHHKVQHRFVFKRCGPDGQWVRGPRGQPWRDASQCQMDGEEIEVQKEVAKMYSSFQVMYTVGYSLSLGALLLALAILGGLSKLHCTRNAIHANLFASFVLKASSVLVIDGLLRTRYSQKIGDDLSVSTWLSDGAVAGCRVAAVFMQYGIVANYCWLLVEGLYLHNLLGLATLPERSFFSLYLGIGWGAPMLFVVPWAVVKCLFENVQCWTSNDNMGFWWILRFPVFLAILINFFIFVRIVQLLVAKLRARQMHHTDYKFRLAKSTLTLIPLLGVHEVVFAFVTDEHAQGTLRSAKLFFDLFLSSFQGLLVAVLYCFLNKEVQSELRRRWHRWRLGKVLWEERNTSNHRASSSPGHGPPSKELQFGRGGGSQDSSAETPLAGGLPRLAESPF
Description: as §1, §2

GIP receptor = target: T3, GIP receptor (Homo sapiens, UniProt P48546); test: cAMP induction at the GIP receptor (agonist activity), luciferase reporter assay in HEK293 cells; type: cell-based; details: for EC50 / GIPR relative activity: Table 4; for EC50: read-out: GIPR EC50; for GIPR relative activity: relative to standard
T3 construct: expressed in transfected cells; host or cells: HEK293
T3 sequence (P48546 22-466): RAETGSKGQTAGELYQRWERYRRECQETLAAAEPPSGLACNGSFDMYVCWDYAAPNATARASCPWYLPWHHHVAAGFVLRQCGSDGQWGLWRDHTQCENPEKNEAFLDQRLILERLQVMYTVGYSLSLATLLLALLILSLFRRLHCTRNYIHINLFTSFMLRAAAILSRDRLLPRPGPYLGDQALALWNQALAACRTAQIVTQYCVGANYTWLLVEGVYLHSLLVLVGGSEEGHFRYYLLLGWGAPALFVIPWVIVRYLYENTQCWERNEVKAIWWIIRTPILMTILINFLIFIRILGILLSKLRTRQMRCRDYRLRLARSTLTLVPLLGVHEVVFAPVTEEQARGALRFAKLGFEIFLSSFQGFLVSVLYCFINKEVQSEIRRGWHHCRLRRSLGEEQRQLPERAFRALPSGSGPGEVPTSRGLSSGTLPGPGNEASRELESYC
Description: as §1, §2

glucagon receptor [2] = target: T2, glucagon receptor; test: cAMP induction at the glucagon receptor (agonist activity), luciferase reporter assay in HEK293 cells; type: cell-based; design: expressed in transfected cells; host or cells: HEK293; details: for EC50 / GR relative activity: Table 4; for EC50: read-out: GR EC50; for GR relative activity: relative to standard
Description: as §1, §2

[3] = Table 7, relative to the native ligand of the receptor
[4] = Table 6, relative to the native ligand at the receptor

`CSCC[C@H](NC(=O)[C@H](CC(C)C)NC(=O)[C@H](Cc1c[nH]c2ccccc12)NC(=O)[C@H](CCC(N)=O)NC(=O)[C@@H](NC(=O)[C@H](Cc1ccccc1)NC(=O)[C@H](CC(=O)O)NC(=O)[C@H](CCC(N)=O)NC(=O)[C@H](C)NC(=O)[C@H](CCCNC(=N)N)NC(=O)[C@H](CCCNC(=N)N)NC(=O)[C@@H]1CCC(=O)NCCCC[C@H](NC(=O)[C@H](CO)NC(=O)[C@H](Cc2ccc(O)cc2)NC(=O)[C@H](CCC(=O)O)NC(=O)[C@H](CO)NC(=O)[C@@H](NC(=O)[C@@H](O)Cc2ccccc2)[C@@H](C)O)C(=O)N[C@@H](Cc2ccc(O)cc2)C(=O)N[C@@H](CC(C)C)C(=O)N[C@@H](CC(=O)O)C(=O)N1)C(C)C)C(=O)N[C@@H](CC(N)=O)C(=O)N[C@H](C(=O)NCC(=O)N1CCC[C@H]1C(=O)N[C@@H](CO)C(=O)N[C@@H](CO)C(=O)NCC(=O)N[C@@H](C)C(=O)N1CCC[C@H]1C(=O)N1CCC[C@H]1C(=O)N1CCC[C@H]1C(=O)N[C@@H](CO)C(N)=O)[C@@H](C)O` [[PLA6, E9, K12E16(Lactam)] (HELM PEPTIDE1{[O=C([C@@H](O)Cc1ccccc1)[*:2]].T.S.E.Y.S.K.Y.L.D.E.R.R.A.Q.D.F.V.Q.W.L.M.N.T.G.P.S.S.G.A.P.P.P.S.[am]}$PEPTIDE1,PEPTIDE1,7:R3-11:R3$$$V2.0) gave an EC50 (GLP-1 receptor; GLP-1 EC50 (nM), Table C) of 6 nM, an EC50 (GLP-1 receptor; GLP-1 ECso (nM), Table A) of 6 nM and an IC50 (glucagon receptor [1]) of 72 nM.
`CC[C@H](C)[C@H](NC(=O)[C@H](CO)NC(=O)[C@H](Cc1ccc(O)cc1)NC(=O)[C@H](CC(=O)O)NC(=O)[C@H](CO)NC(=O)[C@@H](NC(=O)[C@H](Cc1ccccc1)NC(=O)[C@@H](NC(=O)CNC(=O)[C@H](CCC(=O)O)NC(=O)C(C)(C)NC(=O)[C@@H](N)Cc1ccc(O)cc1)[C@@H](C)O)[C@@H](C)O)C(=O)N[C@@H](Cc1ccc(O)cc1)C(=O)N[C@@H](CC(C)C)C(=O)N[C@@H](CC(=O)O)C(=O)N[C@@H](CCCCN)C(=O)N[C@@H](CCC(N)=O)C(=O)N[C@@H](C)C(=O)N[C@@H](C)C(=O)NC(C)(C)C(=O)N[C@@H](CCC(=O)O)C(=O)N[C@@H](Cc1ccccc1)C(=O)N[C@H](C(=O)N[C@@H](CC(N)=O)C(=O)N[C@@H](Cc1c[nH]c2ccccc12)C(=O)N[C@@H](CC(C)C)C(=O)N[C@@H](CC(C)C)C(=O)N[C@@H](C)C(=O)NCC(=O)NCC(=O)N1CCC[C@H]1C(=O)N[C@@H](CO)C(=O)N[C@@H](CO)C(=O)NCC(=O)N[C@@H](C)C(=O)N1CCC[C@H]1C(=O)N1CCC[C@H]1C(=O)N1CCC[C@H]1C(=O)N[C@@H](CO)C(N)=O)C(C)C` [mt-395] gave an EC50 (GLP-1 receptor; Table 4, read-out: GLP-1R EC50) of 0.0076 nM, a GLP-1R relative activity (GLP-1 receptor; Table 4) of 321.55% and an EC50 (GIP receptor) of 0.0025 nM. The GIPR relative activity (GIP receptor) was 537.45%, the EC50 (glucagon receptor [2]) was 3.41 nM and the GR relative activity (glucagon receptor [2]) was 0.87%.
`CC[C@H](C)[C@H](NC(=O)[C@H](CO)NC(=O)[C@H](Cc1ccc(O)cc1)NC(=O)[C@H](CC(=O)O)NC(=O)[C@H](CO)NC(=O)[C@@H](NC(=O)[C@H](Cc1ccccc1)NC(=O)[C@@H](NC(=O)CNC(=O)[C@H](CCC(=O)O)NC(=O)C(C)(C)NC(=O)[C@@H](N)Cc1ccc(O)cc1)[C@@H](C)O)[C@@H](C)O)C(=O)N[C@@H](Cc1ccc(O)cc1)C(=O)N[C@@H](CC(C)C)C(=O)N[C@@H](CC(=O)O)C(=O)N[C@@H](CCCCN)C(=O)N[C@@H](CCC(N)=O)C(=O)N[C@@H](C)C(=O)N[C@@H](C)C(=O)NC(C)(C)C(=O)N[C@@H](CCC(=O)O)C(=O)N[C@@H](Cc1ccccc1)C(=O)N[C@H](C(=O)N[C@@H](CC(N)=O)C(=O)N[C@@H](Cc1c[nH]c2ccccc12)C(=O)N[C@@H](CC(C)C)C(=O)N[C@@H](CC(C)C)C(=O)N[C@@H](C)C(=O)NCC(=O)NCC(=O)N1CCC[C@H]1C(=O)N[C@@H](CO)C(=O)N[C@@H](CO)C(=O)NCC(=O)N[C@@H](C)C(=O)N1CCC[C@H]1C(=O)N1CCC[C@H]1C(=O)N1CCC[C@H]1C(=O)N[C@@H](CO)C(=O)N[C@@H](CCC(=O)O)C(N)=O)C(C)C` [mt-396] showed an EC50 (GLP-1 receptor; Table 4, read-out: GLP-1R EC50) of 0.0093 nM, a GLP-1R relative activity (GLP-1 receptor; Table 4) of 262.27% and an EC50 (GIP receptor) of 0.0034 nM. The GIPR relative activity (GIP receptor) was 402.69%, the EC50 (glucagon receptor [2]) was 2.9 nM and the GR relative activity (glucagon receptor [2]) was 1.03%.
Work on `CC[C@H](C)[C@H](NC(=O)[C@H](CO)NC(=O)[C@H](Cc1ccc(O)cc1)NC(=O)[C@H](CC(=O)O)NC(=O)[C@H](CO)NC(=O)[C@@H](NC(=O)[C@H](Cc1ccccc1)NC(=O)[C@@H](NC(=O)CNC(=O)[C@H](CCC(=O)O)NC(=O)C(C)(C)NC(=O)[C@@H](N)Cc1ccc(O)cc1)[C@@H](C)O)[C@@H](C)O)C(=O)N[C@@H](Cc1ccc(O)cc1)C(=O)N[C@@H](CC(C)C)C(=O)N[C@@H](CC(=O)O)C(=O)N[C@@H](CCCCN)C(=O)N[C@@H](CCC(N)=O)C(=O)N[C@@H](C)C(=O)N[C@@H](C)C(=O)NC(C)(C)C(=O)N[C@@H](CCC(=O)O)C(=O)N[C@@H](Cc1ccccc1)C(=O)N[C@H](C(=O)N[C@@H](CC(N)=O)C(=O)N[C@@H](Cc1c[nH]c2ccccc12)C(=O)N[C@@H](CC(C)C)C(=O)N[C@@H](CC(C)C)C(=O)N[C@@H](C)C(=O)NCC(=O)NCC(=O)N1CCC[C@H]1C(=O)N[C@@H](CO)C(=O)N[C@@H](CO)C(=O)NCC(=O)N[C@@H](C)C(=O)N1CCC[C@H]1C(=O)N1CCC[C@H]1C(=O)N1CCC[C@H]1C(=O)N[C@@H](CO)C(=O)N[C@H](CCCCN)C(N)=O)C(C)C` [mt-398] yielded an EC50 (GLP-1 receptor; Table 4, read-out: GLP-1R EC50) of 0.0078 nM, an EC50 (GIP receptor) of 0.0031 nM and an EC50 (glucagon receptor [2]) of 3.74 nM.
For “Chimera2-CEXK40(C16) (H[Aib]QGTFTSDYSKYLDEQAAKEFIAWLMNGGPSSGAPPPSK(Palmitoyl)-NH2) [MT-364]”, the “% Relative Activity GLP-1R” value (GLP-1 receptor; [3]) was 355%, the “% Relative Activity at GIPR” value (GIP receptor; [3]) was 16% and the “% Relative Activity at GR” value (glucagon receptor [2]; [3]) was 350%.
In the case of “E3C24-PEG-K10-C14 (Y[Aib]EGTFTSDK(Myristoyl)SIYLDKQAA[Aib]EFVC(PEG 40 kDa)WLLAGGPSSGAPPPS-NH2) [MT-341]”, the “% Relative Activity GLP-1R” value (GLP-1 receptor; Table 9) is reported as 14.6%, the “% Relative Activity at GIPR” value (GIP receptor; Table 9) is reported as 27.4% and the “% Relative Activity at GR” value (glucagon receptor [2]; Table 9) is reported as 0.01%.
With “E3C24-PEG-K40-C14 (Y[Aib]EGTFTSDYSIYLDKQAA[Aib]EFVC(PEG 40 kDa)WLLAGGPSSGAPPPSK(Myristoyl)-NH2) [MT-353]” the “% Relative Activity GLP-1R” value (GLP-1 receptor; Table 9) was 128.6%, the “% Relative Activity at GIPR” value (GIP receptor; Table 9) was 102.9% and the “% Relative Activity at GR” value (glucagon receptor [2]; Table 9) was 0.17%.
In the case of “E3K16AIB2,20K10(C16) (Y[Aib]EGTFTSDK(C16 acyl)SIYLDKQAA[Aib]EFVNWLLAGGPSSGAPPPS-NH2) [MT-270]”, the “% Relative Activity GLP-1R” value (GLP-1 receptor; [4]) is reported as 212%, the “% Relative Activity GLP-1R” value (GLP-1 receptor; Table 9) is reported as 211.8% and the “% Relative Activity at GIPR” value (GIP receptor; [4]) is reported as 163%. For the same molecule, the “% Relative Activity at GIPR” value (GIP receptor; Table 9) was 163.3%, the “% Relative Activity at GR” value (glucagon receptor [2]; [4]) was 0.1% and the “% Relative Activity at GR” value (glucagon receptor [2]; Table 9) was 0.06%.
With “K40-C16 (Y[Aib]QGTFTSDYSIYLDKQAA[Aib]EFVNWLLAGGPSSGAPPPSK(C16 acyl)-NH2) [MT-278]” the “% Relative Activity GLP-1R” value (GLP-1 receptor; Table 9) was 459.5%, the “% Relative Activity at GIPR” value (GIP receptor; Table 9) was 846.4% and the “% Relative Activity at GR” value (glucagon receptor [2]; Table 9) was 588.4%.
For “Q3K16AIB20K10(rErE-C16) (Y[Aib]QGTFTSDK([γGlu-γGlu-C16 acyl])SIYLDKQAA[Aib]EFVNWLLAGGPSSGAPPPS-NH2) [MT-384]”, the “% Relative Activity GLP-1R” value (GLP-1 receptor; [3]) was 349%, the “% Relative Activity at GIPR” value (GIP receptor; [3]) was 808% and the “% Relative Activity at GR” value (glucagon receptor [2]; [3]) was 228%.

From patent US20140107021A1 (priority 2010, published 2014)
